Target: PaiB transcriptional regulator from Geobacillus stearothermophilus (Geobacillus stearothermophilus)
Test: crystal structure

stoichiometry N: 2
Substance: PaiB transcriptional regulator from Geobacillus stearothermophilus (natural protein)

Source: paper PMC3365582
